Results: US20090232811A1

Target: recombinant human ANGPT2 (full-length ANGPT2-His protein, R&D Systems) (human) (UniProt O15123)
Experiment: cellular FACS IGF-1R-ANGPT2 bridging assay on I24 cells with purified Bispecific VL-VH/CL-CH1 exchange mix and 2 µg/mL hANGPT2; isotype control in place of <Ang-2>mIgG1-Biotin, SA-PE (FL2-H)

UniProt O15123, sequence (O15123 19-496 limits assumed): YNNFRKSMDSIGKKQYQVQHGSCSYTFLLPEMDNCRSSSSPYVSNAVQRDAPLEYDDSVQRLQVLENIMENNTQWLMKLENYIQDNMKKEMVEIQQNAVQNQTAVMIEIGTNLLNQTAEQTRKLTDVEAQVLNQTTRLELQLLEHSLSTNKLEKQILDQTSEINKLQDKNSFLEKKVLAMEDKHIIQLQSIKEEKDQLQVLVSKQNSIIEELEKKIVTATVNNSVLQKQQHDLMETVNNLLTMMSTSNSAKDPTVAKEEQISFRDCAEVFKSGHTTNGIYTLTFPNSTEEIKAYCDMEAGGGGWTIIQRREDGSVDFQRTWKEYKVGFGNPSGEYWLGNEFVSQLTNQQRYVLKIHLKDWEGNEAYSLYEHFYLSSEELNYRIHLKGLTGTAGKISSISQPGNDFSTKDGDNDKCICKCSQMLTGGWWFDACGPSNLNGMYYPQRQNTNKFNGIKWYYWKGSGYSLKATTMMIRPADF

Mean: 8.7
Substance: mIgG1-Biotin-Isotype control (antibody)
